The text below walks through data of article PMC314469, “Protein Interaction Networks by Proteome Peptide Scanning” (PLoS Biology, 2004).

What all share (experiment): SPOT array
Assay [1] has as its target T1, Boi2 SH3 (BOI2_YEAST), P39969.
T1 chain: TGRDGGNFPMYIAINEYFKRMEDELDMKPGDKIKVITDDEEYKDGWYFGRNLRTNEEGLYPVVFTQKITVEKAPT

The target of assay [2] is T2, Rvs167 SH3 (RV167_YEAST), P39743.
T2 chain: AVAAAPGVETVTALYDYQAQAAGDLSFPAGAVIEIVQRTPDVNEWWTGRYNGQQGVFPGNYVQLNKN

The target of assay [3] is T3, Yhr016c SH3 (YSC84_YEAST), P32793.
T3 chain: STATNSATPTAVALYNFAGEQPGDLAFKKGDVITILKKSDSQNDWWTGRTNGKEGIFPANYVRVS

Assay [4] concerns the target T4, Boi1 SH3 (BOI1_YEAST), P38041.
T4 chain: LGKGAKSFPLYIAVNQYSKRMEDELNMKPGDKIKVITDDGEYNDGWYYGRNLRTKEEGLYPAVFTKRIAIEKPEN

In assay [5] the target is T5, Yfr024 SH3 (LSB3_YEAST), P43603.
T5 chain: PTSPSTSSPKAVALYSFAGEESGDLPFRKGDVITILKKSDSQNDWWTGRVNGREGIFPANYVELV

B1: YLR228C 72-85 (peptide)
chain: VYSPIQPRRRKDSS
Consider B1, for which the normalised SPOT signal, Boehringer light units (BLU); mean over the file's lines of this peptide in assay [1] worked out at 1180; in assay [2] it was 580; in assay [3], 2250; in assay [4] it was 571; in assay [5] it was 13300.

B2: YMR207C 1538-1551 (peptide)
chain: WNDPSDPTKGFQYL
Regarding B2, the normalised SPOT signal, Boehringer light units (BLU); mean over the file's lines of this peptide in assay [1] is 47.1; in assay [2], 48.9; in assay [3] it was 25.5; in assay [4], 30.3; in assay [5], 1300.

B3: YJL060W 164-177 (peptide)
chain: VYVPINPPKELDQR
Consider B3, for which the normalised SPOT signal, Boehringer light units (BLU); mean over the file's lines of this peptide in assay [1] is 17.4; in assay [2], 17.1; in assay [3], 132; in assay [4] it was 32.4; in assay [5] it was 298.

B4: YJL093C 636-649 (peptide)
chain: WISPDTPLKFPLNE
B4: the normalised SPOT signal, Boehringer light units (BLU); mean over the file's lines of this peptide in assay [1] was determined as 227; in assay [2], 168; in assay [3], 364; in assay [4], 85.4; in assay [5], 5890.

B5: YLR215C 239-252 (peptide)
chain: VVLPKFPDKSFVLD
On to B5, for which the normalised SPOT signal, Boehringer light units (BLU); mean over the file's lines of this peptide in assay [1] is 34; in assay [2], 22.6; in assay [3] it was 168; in assay [4], 94.3; in assay [5] it was 533.

B6: YIL156W 502-515 (peptide)
chain: WKPPDLPIRLRKRP
Turning to B6, the normalised SPOT signal, Boehringer light units (BLU); mean over the file's lines of this peptide in assay [1] was 2000; in assay [2] it was 12900; in assay [3], 24500; in assay [4], 7340; in assay [5], 47500.

B7: YDL117W 95-108 (peptide)
chain: VVIPPVPSRYSDER
As for B7, the normalised SPOT signal, Boehringer light units (BLU); mean over the file's lines of this peptide came out at 0 in assay [1]; 1860 in assay [2]; 3610 in assay [3]; 50.6 in assay [4]; 4480 in assay [5].

B8: YIL146C 146-159 (peptide)
chain: VVSPSHPFKQLQKI
With B8, the normalised SPOT signal, Boehringer light units (BLU); mean over the file's lines of this peptide came to 50.3 in assay [1]; 55.9 in assay [2]; 173 in assay [3]; 59.7 in assay [4]; 70.5 in assay [5].
